Key:
Assay in all cases: ITC
[1] = molecular target: OsChz1-C mutant 2M (rice (Oryza sativa))
[2] = molecular target: OsChz1-C mutant 1M (rice (Oryza sativa))
[3] = molecular target: OsChz1-C mutant 3M (rice (Oryza sativa))

Kd [1]: 259 nM | Kd [2]: 150 nM | Kd [3]: 146 nM
B1: Arabidopsis histone H2A (HTA1)-H2B (HTB1) dimer (complex)
chain 1: MAGRGKTLGSGGAKKATSRSSKAGLQFPVGRIARFLKAGKYAERVGAGAPVYLAAVLEYLAAEVLELAGNAARDNKKTRIVPRHIQLAVRNDEELSKLLGDVTIANGGVMPNIHNLLLPKKAGASKPQED
chain 2: MAPRAEKKPAEKKTAAERPVEENKAAEKAPAEKKPKAGKKLPPKEAGDKKKKRSKKNVETYKIYIFKVLKQVHPDIGISSKAMGIMNSFINDIFEKLAQESSKLARYNKKPTITSREIQTAVRLVLPGELAKHAVSEGTKAVTKFTSS

From PMC7658359 (2020)
